From patent publication US9079867B2, “Polyazamacrocyclic compound, and a production method and a biomedical use therefor” (KYUNGPOOK NATIONAL UNIVERSITY INDUSTRY-ACADEMIC COOPERATION …, priority 2010, dated 2015)

What was measured:
[1] = Cyclic voltammetry (electrochemical experiment); format: physicochemical; settings: irreversible (irrev); 2 mM, 100 mV/s, 0.1 M sodium acetate pH 7.0, glassy carbon electrode
Experimental: Cyclic voltammetry was carried out by using biological model SP-150 having a 3-electrode structure. The working electrode was made of glassy carbon (diameter=3 mm), the reference electrode Ag/AgCl (saturated KCl), and the counter electrode Pt wire. A sample (2 mM) of compound (30) was operated at a scanning speed of 100 mV/s in a 0.1 M aqueous sodium acetate solution adjusted to pH 7.0 with glacial acetic acid. From the solution, oxygen was removed by bubbling Ar for 30 minutes. During the measurement, the system was maintained under Ar atmosphere.

in vivo = experiment: in vivo; design: species or system female nude mice; settings: female, nude, mouse, iv, 10 uCi, total radioactivity
Experimental: Compound ^64Cu-TE2A-c(RGDyK) (38) (10 μCi) in PBS (120 μl) was injected to the tails of female nude mice to which U87MG tumor had been transplanted. Two groups were examined at two time points [n=4 per group at 1 hr and 4 hr post injection (pi)]. The subject animals were sacrificed, and the relevant tissues and organs were removed and weighed. A dosimetric procedure was carried out by using a gamma-counter. The calculations were performed by comparing with a reference value of which the percentage of injected amount per gram was known.

Q: Which “Ered (V) for Ag/AgCl” value [1] does the source give for O=C([O-])CN1CCCNCCN(CC(=O)[O-])CCCNCC1.[Cu+2] [Cu-TE2A] here?
A: The value was −1.05 (irrev) V.

Q: Which results are given for N=C(N)NCCC[C@@H]1NC(=O)[C@H](CCCCNC(=S)Nc2ccc(CCN3CCCN(CC(=O)O)CCNCCCN(CC(=O)O)CC3)cc2)NC(=O)[C@@H](Cc2ccc(O)cc2)NC(=O)[C@H](CC(=O)O)NC(=O)CNC1=O [^64Cu-TE2A-c(RGDyK), metal not drawn]?
A: tissue uptake at 1 h (in vivo; % ID/g Blood): 0.55 ± 0.18 %ID/g; tissue uptake at 4 h (in vivo; % ID/g Blood): 0.43 ± 0.09 %ID/g; tissue uptake at 1 h (in vivo; % ID/g Bone): 0.66 ± 0.23 %ID/g; tissue uptake at 4 h (in vivo; % ID/g Bone): 0.41 ± 0.06 %ID/g; tissue uptake at 1 h (in vivo; % ID/g Fat): 1.28 ± 0.55 %ID/g; tissue uptake at 4 h (in vivo; % ID/g Fat): 1.15 ± 1.08 %ID/g; tissue uptake at 1 h (in vivo; % ID/g Intestine): 2.14 ± 0.53 %ID/g; tissue uptake at 4 h (in vivo; % ID/g Intestine): 2.17 ± 0.62 %ID/g; tissue uptake at 1 h (in vivo; % ID/g Kidney): 3.47 ± 0.61 %ID/g; tissue uptake at 4 h (in vivo; % ID/g Kidney): 2.71 ± 0.45 %ID/g; tissue uptake at 1 h (in vivo; % ID/g Liver): 5.45 ± 1.14 %ID/g; tissue uptake at 4 h (in vivo; % ID/g Liver): 4.45 ± 0.65 %ID/g; tissue uptake at 1 h (in vivo; % ID/g Lung): 1.46 ± 0.34 %ID/g; tissue uptake at 4 h (in vivo; % ID/g Lung): 1.14 ± 0.17 %ID/g; tissue uptake at 1 h (in vivo; % ID/g Muscle): 0.49 ± 0.3 %ID/g; tissue uptake at 4 h (in vivo; % ID/g Muscle): 0.24 ± 0.11 %ID/g; tissue uptake at 1 h (in vivo; % ID/g Spleen): 1.17 ± 0.46 %ID/g; tissue uptake at 4 h (in vivo; % ID/g Spleen): 1.04 ± 0.46 %ID/g; tissue uptake at 1 h (in vivo; % ID/g Stomach): 1.78 ± 0.55 %ID/g; tissue uptake at 4 h (in vivo; % ID/g Stomach): 1.03 ± 0.39 %ID/g; tissue uptake at 1 h (in vivo; % ID/g Tumor 1): 2.98 ± 0.39 %ID/g; tissue uptake at 4 h (in vivo; % ID/g Tumor 1): 3.01 ± 1 %ID/g; tissue uptake at 1 h (in vivo; % ID/g Tumor 2): 3.49 ± 1.67 %ID/g; tissue uptake at 4 h (in vivo; % ID/g Tumor 2): 3.32 ± 0.49 %ID/g
